The text below walks through data of PMC9552169, “Mutations Increasing Cofactor Affinity, Improve Stability and Activity of a Baeyer–Villiger Monooxygenase” (ACS Catalysis, 2022).

In this data set the test system is O=C1CCCCC1. The data set can be described thus: purified protein. The settings on record: table prints only 'substrate', cyclohexanone taken from the standard assay (Figure 2: 100 μM NADPH, 50 mM TrisHCl pH 8.5).

Take “CHMOAcineto (CHMOwt) (Acinetobacter johnsonii)”: the Km came to 6.7 ± 2.0 µM.

What is called Km is the concentration of substrate that gives half-maximal velocity.
